Measured values from publication PMC6392328.

Legend:
[1] = molecular target: ASB9 bait in the pAcGFP1-C vector (pAcGFP1-ASB9) (bovine); assay: co-IP; Matchmaker Co-IP system; HEK 293 cells co-transfected with the pAcGFP1 bait and the pProLabel prey; co-immunoprecipitation with protein G Plus/A agarose beads, read by the ProLabel enzyme complementation assay (RLU every 5 min for 45 min)
[2] = molecular target: pAcGFP1-53 (positive control bait) (UniProt P02340); assay: as above
Chain of UniProt P02340 (P02340 whole entry): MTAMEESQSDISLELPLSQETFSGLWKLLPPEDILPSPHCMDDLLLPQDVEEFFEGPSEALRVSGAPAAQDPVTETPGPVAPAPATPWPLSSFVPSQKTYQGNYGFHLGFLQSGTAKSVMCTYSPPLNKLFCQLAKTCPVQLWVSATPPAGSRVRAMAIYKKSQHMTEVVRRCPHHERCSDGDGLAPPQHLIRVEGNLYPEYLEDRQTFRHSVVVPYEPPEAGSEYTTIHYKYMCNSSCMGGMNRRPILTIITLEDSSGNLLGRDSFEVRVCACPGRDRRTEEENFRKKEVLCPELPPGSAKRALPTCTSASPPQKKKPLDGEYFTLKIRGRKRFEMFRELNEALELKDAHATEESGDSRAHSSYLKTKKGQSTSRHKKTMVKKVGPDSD

Substance | fold induction of ProLabel enzymatic activity after co-IP, against the negative control, at 40 minutes [1] [fold] | fold induction of ProLabel enzymatic activity after co-IP (positive control) [2] [fold]
Hypoxia inducible factor 1, alpha subunit (HIF1A) in the pProLabel-C vector (natural protein) | 13 | 
ProLabel-T (positive control prey) (natural protein) |  | 37
Tumor necrosis factor alpha-induced protein 6 (TNFAIP6) in the pProLabel-C vector (natural protein) | 18 | 
